This assay addresses Wild-type E. coli 70S ribosomes, purified from strain MRE600 (E. coli (endogenous in MRE600)) (UniProt P0A7R5). The experiment in a line: co-sedimentation.

This note sets out measurements from PMC5980749.

As a reminder, the stoichiometry N is a count of units in the complex or per binding partner.

Regarding “Escherichia coli transcription factor NusG, His-tagged, wild type (from UniProt P0AFG0 1-181) (natural protein)”, the percent of total NusG recovered in the ribosomal pellet amounted to 19% and the stoichiometry N amounted to 1 NusG per 70S.
